For 1 molecule, Kd results are on record in article PMC7902612 (2021).

This assay concerns the target GST-BRCA1-N (N-terminal of BRCA1, 1-147 aa) (human, UniProt P38398 1-147). The assay is described as follows: MST.

Chain of GST-BRCA1-N (N-terminal of BRCA1, 1-147 aa) (P38398 1-147): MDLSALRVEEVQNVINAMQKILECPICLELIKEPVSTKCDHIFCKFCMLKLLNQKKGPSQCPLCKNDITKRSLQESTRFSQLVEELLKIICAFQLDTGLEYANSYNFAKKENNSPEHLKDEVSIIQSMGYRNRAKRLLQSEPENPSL

B1: GFP-BARD1^WT (natural protein)
chain: MPDNRQPRNRQPRIRSGNEPRSAPAMEPDGRGAWAHSRAALDRLEKLLRCSRCTNILREPVCLGGCEHIFCSNCVSDCIGTGCPVCYTPAWIQDLKINRQLDSMIQLCSKLRNLLHDNELSDLKEDKPRKSLFNDAGNKKNSIKMWFSPRSKKVRYVVSKASVQTQPAIKKDASAQQDSYEFVSPSPPADVSERAKKASARSGKKQKKKTLAEINQKWNLEAEKEDGEFDSKEESKQKLVSFCSQPSVISSPQINGEIDLLASGSLTESECFGSLTEVSLPLAEQIESPDTKSRNEVVTPEKVCKNYLTSKKSLPLENNGKRGHHNRLSSPISKRCRTSILSTSGDFVKQTVPSENIPLPECSSPPSCKRKVGGTSGRKNSNMSDEFISLSPGTPPSTLSSSSYRRVMSSPSAMKLLPNMAVKRNHRGETLLHIASIKGDIPSVEYLLQNGSDPNVKDHAGWTPLHEACNHGHLKVVELLLQHKALVNTTGYQNDSPLHDAAKNGHVDIVKLLLSYGASRNAVNIFGLRPVDYTDDESMKSLLLLPEKNESSSASHCSVMNTGQRRDGPLVLIGSGLSSEQQKMLSELAVILKAKKYTEFDSTVTHVVVPGDAVQSTLKCMLGILNGCWILKFEWVKACLRRKVCEQEEKYEIPEGPRRSRLNREQLLPKLFDGCYFYLWGTFKHHPKDNLIKLVTAGGGQILSRKPKPDSDVTQTINTVAYHARPDSDQRFCTQYIIYEDLCNYHPERVRQGKVWKAPSSWFIDCVMSFELLPLDS
For orientation: Kd means the equilibrium constant for the complex coming apart. A higher Kd goes with a looser complex. With B1, the affinity, expressed as Kd, was 1340 nM.
